Experimental data reported in the nanobody polyreactivity screen of Harvey et al. (2022).

Assay: yeast display, Sf9 membrane polyspecificity reagent, FACS + sequencing; frameworks hold sequencing errors
How it was run: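 Sorting gates, low and high (top ~1%), were placed on anti-HA fluorescence to track expression and on streptavidin fluorescence to track reagent binding. A clone's polyreactivity label is taken from the gate it came out of. The reagent was 10% biotinylated, detergent-solubilized Sf9 membrane, applied for 1 hour at 4 °C to galactose-induced yeast display cells.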

Sequence | polyreactivity (PSR sort gate)
QVQLVESGGGLVQAGGSLRLSCAASGTTFYYNAMGWYRQAPGKERELVARISRSGGSTYADSVKGRFTISRDNAKNTVYLQMNSLKPEDTAVYYCNADAYGTPEFTSYAVRYDYWGQGTQVTVSS | low polyreactivity
QVQLVESGGGLVQAGGSLRLSCAASGIIIVRYAMGWYRQAPGKERELVAAISWSGGRTYYADSVKGRFTISRDNAKNTVYFQINSLKPEDTAVYYCAAAPLYYHRRGYYYWGQGTQVTVSS | high polyreactivity
QVQLVESGGGLVQAGGSLRLSFAASGRTFRYYAMGWYRQAPGKERELVAAISGRGGSTYYADSVKARFTISRDNAKNSVYLQMNRQKPEDTAVYYCAASFYSIRYDYWGQGTQVTVSS | high polyreactivity
QVQLVESGGGLVQAGRSLRLSCAASGYIFDTNAMGWYRQAPGKERELVAAITKSGGSTYYADSVKGRFTISRDNAKNTVYLHMNSLKPEDTAVYYCAARGTSKRWSLYDYWGQGTQVTVSS | low polyreactivity
QVQLVESGGGLVQAGGSLRLSCAASGYTFAGNAMGWYRQAAGKERELVAAISRSGGRTYYADSVKGRFTISRDNAKNTVYLQMNSLNPEDTAVYYCAAYFPRTLFEFGYWGQGTQVTVSS | high polyreactivity
QVQLVESGGGLVQAGGSLRLSCAASGRIFPYYAMGWYRQAPGKERELVAAISQSGGRTYYADSVKGRFTISRDNAKNTVYLQMNSLKPEDTAVYYCIAYTYSSGYDYWGQGTQVTVSS | high polyreactivity
QVQLVESGGGLVQAGGSLRLSCAASGFILYGNARGWYRQAPGKERELVAAISSSGRTNYADYVKGRFTISRDNAKNTVYLQMNRLKPEDTAVYYCADYVRAGYGMGYWGQGTQVTVSS | low polyreactivity
QGQLVETGGGLVQAGGSLRLSCDASGSIFYSNRGSYRQAPGKESEFVSAISGSGVRTYYADSLKGRFTISRDNAKNTVYLQMNSLKPEDNEVYYCNAGRRQDYRYNYWGQGTQVTVSS | high polyreactivity
QVQLVESGGGLVQAGGSLRLSCADSGFTFSWYTMGWYRQAPGKERELVASITVSGGSTYYADSVKGRFTISRDNAKNTVYLQMNSLKPEDTAVYYCNAQDPFTYYSSSPTYDYWGQGTQVTVSS | low polyreactivity
QVQLVESGGGLVQAGGSLRLSCAASGRIFKLYAMGWDRQAPGKERELVAAISKSGGNTYADSVKGRFTISRDNAKNTVYLQMNSLKPEDTAVYYCAATVQSTSDPFDYWGQGTQVTVSS | low polyreactivity
QVQLVESGGGLVQAGGSLRLSCAASGSIFDVNAMGWYRPAPGKERELVAAISDSGGSTYYADSVKGRFTISRDNAKNTVYLQMNSLQPQDTAVYSCNADWSWYNYYDFDYWGQGTQVTVSS | low polyreactivity
QVQLVESGGGLVQAGGSLRLSCAASGRTFEVYAMGLYRQAPGKERELVATITYSGGITYYADSVKGRFTISRDNAKNTVYLQMNSLKPEDTAVYYPIGVRGDYDYWGQGTQVTVSS | low polyreactivity
QVQLVESGGGLVQAGGSLRLSCAASGFTFSRNVLGWYRQAPGKERELIAAITTSYGGTYYADSVKGRFTISRDNAKNTVYLQMNSLKPEDTAVYYCATRYYPNTSYEYYYWGQGTQLTVSS | low polyreactivity
QVQLVESGGGLVQAGGRLRLSCAASGTTAENVMGWYRQAPGKERELVAAISSRGGSTYYADSVKGRFTISRDNAKNTVYLQKNSLKPEDTAVYYCAAEYVSHFSGYRYDYWGQGTHVTVSS | low polyreactivity
QVQHVESVGGLVQAGGSLRLSCAASGITFNYNAMGWYRQAPGKERELVAAIRGSDSTTYYADSVKGRFTISRDNAKNTVYLQMNSLKPEDTAVYYCAAVGVVPRKKSARVYYWGQGTQVTVSS | low polyreactivity
QVQLVESGGGLVQAGGSLRLSCAAYGSTFRYYAMGWYRQAPGKERELVAAITSSGGSTYYADSVKGRFTISRDNAKNTVFLQMNSLKPEDTAVYYCAVAVKNWVKLNYWGQGSQVTVSS | high polyreactivity
QVQLVESGGGLVQAGGSLRLSCADSGLTFIYYAMGWYRQAHGKERELVAAISSSGGRTYYADSVKGRFTISRDNAKNTVYLQMNSLKPEDTAVYYCATRYWTQSSSFDYWGQGTQVTVSS | high polyreactivity
QVQLQESGGGLMQAGGSQRLSCAASGSISYYSDMGWYRQAPGKEREFVAGIGYGTTTNYADSVKGRFTTSRDNAKKTVYLQMISIKPEDTAVYYCAAYQGNGYEFYYWGQGTQVTVRS | low polyreactivity
QDQLVDSGGGLVQAGGSLSLSCAASGISFYGNAMAWYRPAPGKERELVAAITSGGSTNYADSVKGRFTISRDNAKNTVYLQLYSLKPEDTAVYYCAVSYVSTLRRSRYDYWGQGTQVTVSS | low polyreactivity
QVQLVESGGGLVQAGGSLRLSCAASGFTFGHYARGWSRQAPGKERELVAAISRSGGTTSYADSVKGRFTISRDNAKNTVYLQMNSLKTEDTAVYYCNKDYIWARYGGGRDYWGQGTQVTVSS | low polyreactivity
QVQLVESGGGLVQAGGSLRLSCAASGSIFNNYAMGWYRQAPGKEREFVAAISRSGGSTYYADSVKGRFTISRDNAKNTVYLQMNSLKPEDTAVYYCATDHGRYHGRYDYWGQGTQVTVSS | high polyreactivity
QVQLVESGGGLVQAGGSLRLSCAASGLIFLPYAMGWYRQAPGKERELVAAIRWSDDSTYYADSVKGRFTILRDNAKNTVYFQMNCLKPEDTAVYYCNAYVYRPSYIFNYYYEYDYWGQGTQVTVSS | high polyreactivity

Sequence | polyreactivity (PSR sort gate)
QVQLVESGGVLDQAGGSLRLICAASGITLFHYVMGWYRQAPGKEMELVAVISSSGGSTYYADSVKGRFTISRDNAKNTVYLQMNSLKPEDTAVYYCAAETDSRKARVLYDYWGQGTQVTVSS | high polyreactivity
QVQLVESGGGLVQAGGSLRLSCAASGGIFGYYAMAWYRQAPGKEREFVAAITLSGGRSYYADSVKGRFTISRDNAKNTVYLQMNSLKPEDTAVYYCNAYPYYLVRNMDSWGQGTQVTVTS | high polyreactivity
QVQLVESGGGLVQAGGSLRLSCAASGLTFVDNAMGWYRQAPGQERELVAAITKRGGRTYYADSVKGRFTISRDNAKNTVYLQMNSLKPEDTAVNYCARESGNDSSRRLDYWGQGSQVTVSS | low polyreactivity
QVQLVESGGGLVQAGGSLRLSCAASGSIYYTNAMGWYRQAPGKERELVAAIRWSGGRTYYADSVKGRFTISRDNAKNTVYLQMNSLKPEDTAVYYCNKVPRTPIPYKYGYWGQGTQVTVSS | high polyreactivity
QVQLVESGGGLVQAGGSLRLSCAASGSNFYYKAMGWYRQAPGKERELVAAITSGDSTNYADSVKGRFTISRDNAKNTVYLQMNSLKPEDTAVYYCAADYLAALTYYRTYDYWGQGTQVTVSS | low polyreactivity
QVQLVESGGGLVQAGGSLRLSCAASGITFYRYAMGWYRQAPGKERELVAAINSSGGNTYYADSVKGRFTISRDNAKNTVYLQMNSLKPEDTAVYYCAADRVSWVKHYYWGQGTQVTVSS | high polyreactivity
QVQLVESGGGLVQAGGSLRLSCAASGITIRLSALGGYRQAPGNERELVAAITSGGSTYADSVKGRFTISRDNAKNTVYLQMNSLKPEDTAVYYCNAEALVNGGYDYWGQGTQVTVSS | high polyreactivity
QVQLVESGGGLVQAGGSLRLSCAASGRIFQLYAMGWYRLAPGKERELVAVISSGDRTYYADSVKGRFTISRDNAKNTVYLQMNSLKPEDTAVYYCAALGWHSGGSRWHGEYDYWGQGTQVTVSS | low polyreactivity
QVQLVESGGGLVQAGGSLRLSCAASGSTFGTYAMGWYRQATGKERELVAAISRGVSTYYADSVKGRFTISRDKAKNTVYLEMNSLKPEDTAVYYCAADPFWQTVYVYYTYSGTSYYWGQGTQVTVSS | low polyreactivity
QVQLVESGGGLVQAGGRLRLSCAASGSIFQYNAMGWSRQAPGKERELVAAISRSGGSTYYADSVKGRFTISRDNAKNTVYLQMNSLKPEDTAVYYCHAVLGYYSPYDYWGQGTQVTVSS | low polyreactivity
QVQLVESGGVLVQAAGSLRLSCAASGRIFGYNAMGWYRQAPGSERDFVAAISPSGGSTYYADSLKGLFTISRDNAKITVYLQMNSLKPEDTGVYYCAARIGYRSWAWDAYEYWGQGTQVTVSS | low polyreactivity
QVQLVESGGGLVQAGGSLRLSCAASGSIFTYYAMGWYRQAPGKERELVAAIDFSGASTSYADSVKGRFTISRDNAKNTVYLQMNSLKPEDTAVYYCAAVLYWYPPYYYWGQGTQVTVSS | low polyreactivity
QVQLVESGGGLVQAGGSLRLSCAASGSIFWFNAMGWYRQAPGKEREFVASISRSGGTTYYADSVKGRFTISRDNAKNTVYLQMNSLKPEDTAVYYCNARAYGNGLGTGYFGKHRYDYWGQGTQVTVSS | low polyreactivity
QGQRVESAGGLVQAGGSLRLSCAASGITFARNVMGWSRQAPGQERELVAAISRGDSTYYADSVKGRFTISRDNAKNTVYLQLNSLKPEDTAVYYCAAAVKHVAYHYNYWGQGTQVTVSS | high polyreactivity
QVQLVESGGGLVQAGGSLRLSCAASGRIFGGYEMGWYRQAPGKERELVAAITSDSSTTYADSVKGRFTISRDNAKNTVYLQMNSLKPEDTAVYYCAVQVNGPVFYRPYRDYDYWGQGTQVTVSS | low polyreactivity
QVHLVESGGGLVQAGGSLRLSCAASGFIFSLYAMGWYRQAPGKERELVAAISKRGGSTNYADSVKGRFTISRDNAKNTVYLQMNSLKPEDTAVYYWAKARPGFLYDHWGQGTQVTVSS | high polyreactivity
QVQHVESVGGLVQAGGSLRLSCAASGYIFIRYPMGCYRQANGKERELDAAITWSDGTTYYADSVKGRFTISRDNAKNTVYLQMNSLKPEDTAVYYCAADRKVESVSRYDYWGQGTQVTVSS | low polyreactivity
QLQLVESGGGLVQAGGSLRLSCAASGRTFGYNVMGWYRQAPGKERELVAAISSSGGSTYYADSVKGRFTISRDNAKNTVYLQMNSLKPEDTAVYYCAAQVRYYQSGPMYYWGQGTQVTVSS | high polyreactivity
QVQLVESGGGLVQAGGSLRLSCAASGSIFSYNAMGWYRQAPGKERELVAVITRGGSTYYADSVKGRFTISRDNAKNTVYLQMNSLKPEDTAVYYCAAGAHRRGYDYWGQGTQVTVSS | high polyreactivity
QVQLVESGGGLVQAGGSLRLSCAASGLTSIHYMGWYRQAPGKERELVATITSSTGSTYYADSVKGRFTISRDNAKNTVYLQMNSLKPEDTAVYYCAAESFGADGPYQPSYDYWGQGTQVTVSS | low polyreactivity
QVQLVESGGGLVQAGGSLRLSCAASGRIFRPNAMGWYRQAPGKERELVAAISYSGATTYYADSVKGRFTISRDNAKNTVYLQMNSLKPEDTAVYYCAADTPDAPDYSGFYYWGQGTKVTVSS | low polyreactivity
